# Patent US20140206011A1
# Columns and labels:
# E-cadherin (human) = E-cadherin (human) (UniProt P12830); assay: cell-based or functional assay
# [1] = biological target: FadA on wild-type Fusobacterium nucleatum 12230 (Fusobacterium nucleatum); assay: cell-based or functional assay
# Sequence of UniProt P12830 (P12830 155-882): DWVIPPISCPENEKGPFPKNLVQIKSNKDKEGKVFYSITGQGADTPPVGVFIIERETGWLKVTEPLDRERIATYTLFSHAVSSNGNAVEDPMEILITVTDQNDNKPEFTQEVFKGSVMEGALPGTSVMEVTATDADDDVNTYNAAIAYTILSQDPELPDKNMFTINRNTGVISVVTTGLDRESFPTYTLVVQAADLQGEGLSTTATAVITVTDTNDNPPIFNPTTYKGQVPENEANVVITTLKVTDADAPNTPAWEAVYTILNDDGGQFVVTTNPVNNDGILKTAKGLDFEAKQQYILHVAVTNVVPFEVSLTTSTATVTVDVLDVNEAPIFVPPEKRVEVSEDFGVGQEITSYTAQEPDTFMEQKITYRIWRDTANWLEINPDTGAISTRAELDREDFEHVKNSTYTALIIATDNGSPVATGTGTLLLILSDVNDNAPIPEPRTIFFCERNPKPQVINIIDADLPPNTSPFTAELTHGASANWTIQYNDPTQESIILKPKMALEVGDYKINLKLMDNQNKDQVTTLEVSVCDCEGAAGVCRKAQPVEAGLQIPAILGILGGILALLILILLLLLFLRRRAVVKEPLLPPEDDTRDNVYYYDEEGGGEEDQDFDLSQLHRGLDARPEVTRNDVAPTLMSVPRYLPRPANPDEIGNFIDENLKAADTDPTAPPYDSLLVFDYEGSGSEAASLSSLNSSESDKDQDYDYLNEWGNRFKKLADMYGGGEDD
substance,measurement,setting,value
FadA on wild-type Fusobacterium nucleatum 12230,"attachment level of Fn to HCT116 (percent bacteria recovered relative to inoculum), FIG. 3C without inhibition",E-cadherin (human),4.4%
same,"attachment level of Fn to HCT116 without inhibition, FIG. 4B",E-cadherin (human),6.3%
same,"attachment level of Fn to HCT116 without inhibition, FIG. 4C",E-cadherin (human),5.9%
same,"invasion level of Fn into HCT116 (percent bacteria recovered relative to inoculum), FIG. 3C without inhibition",E-cadherin (human),1.3%
same,"invasion level of Fn into HCT116 without inhibition, FIG. 4B",E-cadherin (human),1.6%
same,"invasion level of Fn into HCT116 without inhibition, FIG. 4C",E-cadherin (human),1.4%
FadAc,HCT116 cell growth (cell proliferation assay),E-cadherin (human),1 mg/mL
same,HCT116 xenograft tumor growth in nude mice,E-cadherin (human),20%
GST-EC5 fusion protein (from UniProt P12830 594-697),inhibition of Fn attachment and invasion of HCT116,[1],0.1 µM
